Assay results as given in PMC2164959.

Molecular target: AU1-tagged codon-optimised HPV16 E5 mutant M1 (human papillomavirus type 16) (UniProt P06927)
Test: co-IP; HEK-293T transfected, lysed 20-24 h after transfection in CHAPS buffer (0.2 M NaCl, 50 mM HEPES pH 7.5, 2% CHAPS); immunoprecipitation by the tag of E5 (anti-AU1, anti-HA or anti-GFP), protein G-sepharose, blot with anti-calnexin

B1: calnexin (natural protein)
chain: HDGHDDDVIDIEDDLDDVIEEVEDSKPDTTAPPSSPKVTYKAPVPTGEVYFADSFDRGTLSGWILSKAKKDDTDDEIAKYDGKWEVEEMKESKLPGDKGLVLMSRAKHHAISAKLNKPFLFDTKPLIVQYEVNFQNGIECGGAYVKLLSKTPELNLDQFHDKTPYTIMFGPDKCGEDYKLHFIFRHKNPKTGIYEEKHAKRPDADLKTYFTDKKTHLYTLILNPDNSFEILVDQSVVNSGNLLNDMTPPVNPSREIEDPEDRKPEDWDERPKIPDPEAVKPDDWDEDAPAKIPDEEATKPEGWLDDEPEYVPDPDAEKPEDWDEDMDGEWEAPQIANPRCESAPGCGVWQRPVIDNPNYKGKWKPPMIDNPSYQGIWKPRKIPNPDFFEDLEPFRMTPFSAIGLELWSMTSDIFFDNFIICADRRIVDDWANDGWGLKKAADGAAEPGVVGQMIEAAEERPWLWVVYILTVALPVFLVILFCCSGKKQTSGMEYKKTDAPQPDVKEEEEEKEEEKDKGDEEEEGEEKLEEKQKSDAEEDGGTVSQEEEDRKPKAEEDEILNRSPRNRKPRRE
percent of calnexin co-precipitated, relative to wild type: 50%
